Square brackets hold non-standard residues; d marks the D form. Ends that are not written are not given here. Aib = CC(C)(N)C(=O)O
T1: human glucose-dependent insulinotropic peptide receptor (human, UniProt P48546)
T1 sequence: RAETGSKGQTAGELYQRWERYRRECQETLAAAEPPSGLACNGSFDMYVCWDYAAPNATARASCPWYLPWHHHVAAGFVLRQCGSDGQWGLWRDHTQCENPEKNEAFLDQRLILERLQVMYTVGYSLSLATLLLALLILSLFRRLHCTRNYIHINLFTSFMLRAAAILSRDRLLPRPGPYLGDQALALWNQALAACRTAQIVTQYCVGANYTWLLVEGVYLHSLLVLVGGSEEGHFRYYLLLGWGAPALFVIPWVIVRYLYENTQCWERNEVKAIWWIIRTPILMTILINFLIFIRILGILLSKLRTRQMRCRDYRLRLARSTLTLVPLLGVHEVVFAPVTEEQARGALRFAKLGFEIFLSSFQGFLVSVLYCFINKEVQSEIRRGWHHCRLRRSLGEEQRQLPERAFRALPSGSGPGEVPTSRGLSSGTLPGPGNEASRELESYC

B1: Compound No. 2 (peptide)
peptide: Y[Aib]EGTFTSDVSSYLEEEAAKEFIAWLVRGGPSSGAPPPSK-NH2
modifications: N-terminus assumed
SMILES: CC[C@H](C)[C@H](NC(=O)[C@H](Cc1ccccc1)NC(=O)[C@H](CCC(=O)O)NC(=O)[C@H](CCCCN)NC(=O)[C@H](C)NC(=O)[C@H](C)NC(=O)[C@H](CCC(=O)O)NC(=O)[C@H](CCC(=O)O)NC(=O)[C@H](CCC(=O)O)NC(=O)[C@H](CC(C)C)NC(=O)[C@H](Cc1ccc(O)cc1)NC(=O)[C@H](CO)NC(=O)[C@H](CO)NC(=O)[C@@H](NC(=O)[C@H](CC(=O)O)NC(=O)[C@H](CO)NC(=O)[C@@H](NC(=O)[C@H](Cc1ccccc1)NC(=O)[C@@H](NC(=O)CNC(=O)[C@H](CCC(=O)O)NC(=O)C(C)(C)NC(=O)[C@@H](N)Cc1ccc(O)cc1)[C@@H](C)O)[C@@H](C)O)C(C)C)C(=O)N[C@@H](C)C(=O)N[C@@H](Cc1c[nH]c2ccccc12)C(=O)N[C@@H](CC(C)C)C(=O)N[C@H](C(=O)N[C@@H](CCCNC(=N)N)C(=O)NCC(=O)NCC(=O)N1CCC[C@H]1C(=O)N[C@@H](CO)C(=O)N[C@@H](CO)C(=O)NCC(=O)N[C@@H](C)C(=O)N1CCC[C@H]1C(=O)N1CCC[C@H]1C(=O)N1CCC[C@H]1C(=O)N[C@@H](CO)C(=O)N[C@@H](CCCCN)C(N)=O)C(C)C
B2: Compound No. 70 (peptide)
peptide: Y[Aib]EGTFTSDYSIYLEEIAAQEFVNWLLAGGPSSGAPPPS-NH2
modifications: N-terminus assumed
SMILES: CC[C@H](C)[C@H](NC(=O)[C@H](CCC(=O)O)NC(=O)[C@H](CCC(=O)O)NC(=O)[C@H](CC(C)C)NC(=O)[C@H](Cc1ccc(O)cc1)NC(=O)[C@@H](NC(=O)[C@H](CO)NC(=O)[C@H](Cc1ccc(O)cc1)NC(=O)[C@H](CC(=O)O)NC(=O)[C@H](CO)NC(=O)[C@@H](NC(=O)[C@H](Cc1ccccc1)NC(=O)[C@@H](NC(=O)CNC(=O)[C@H](CCC(=O)O)NC(=O)C(C)(C)NC(=O)[C@@H](N)Cc1ccc(O)cc1)[C@@H](C)O)[C@@H](C)O)[C@@H](C)CC)C(=O)N[C@@H](C)C(=O)N[C@@H](C)C(=O)N[C@@H](CCC(N)=O)C(=O)N[C@@H](CCC(=O)O)C(=O)N[C@@H](Cc1ccccc1)C(=O)N[C@H](C(=O)N[C@@H](CC(N)=O)C(=O)N[C@@H](Cc1c[nH]c2ccccc12)C(=O)N[C@@H](CC(C)C)C(=O)N[C@@H](CC(C)C)C(=O)N[C@@H](C)C(=O)NCC(=O)NCC(=O)N1CCC[C@H]1C(=O)N[C@@H](CO)C(=O)N[C@@H](CO)C(=O)NCC(=O)N[C@@H](C)C(=O)N1CCC[C@H]1C(=O)N1CCC[C@H]1C(=O)N1CCC[C@H]1C(=O)N[C@@H](CO)C(N)=O)C(C)C
B3: Compound No. 72 (peptide)
peptide: Y[Aib]EGTFTSDYSIYLEEIAAKEFVNWLLAGGPSSGAPPPS-NH2
modifications: N-terminus assumed
SMILES: CC[C@H](C)[C@H](NC(=O)[C@H](CCC(=O)O)NC(=O)[C@H](CCC(=O)O)NC(=O)[C@H](CC(C)C)NC(=O)[C@H](Cc1ccc(O)cc1)NC(=O)[C@@H](NC(=O)[C@H](CO)NC(=O)[C@H](Cc1ccc(O)cc1)NC(=O)[C@H](CC(=O)O)NC(=O)[C@H](CO)NC(=O)[C@@H](NC(=O)[C@H](Cc1ccccc1)NC(=O)[C@@H](NC(=O)CNC(=O)[C@H](CCC(=O)O)NC(=O)C(C)(C)NC(=O)[C@@H](N)Cc1ccc(O)cc1)[C@@H](C)O)[C@@H](C)O)[C@@H](C)CC)C(=O)N[C@@H](C)C(=O)N[C@@H](C)C(=O)N[C@@H](CCCCN)C(=O)N[C@@H](CCC(=O)O)C(=O)N[C@@H](Cc1ccccc1)C(=O)N[C@H](C(=O)N[C@@H](CC(N)=O)C(=O)N[C@@H](Cc1c[nH]c2ccccc12)C(=O)N[C@@H](CC(C)C)C(=O)N[C@@H](CC(C)C)C(=O)N[C@@H](C)C(=O)NCC(=O)NCC(=O)N1CCC[C@H]1C(=O)N[C@@H](CO)C(=O)N[C@@H](CO)C(=O)NCC(=O)N[C@@H](C)C(=O)N1CCC[C@H]1C(=O)N1CCC[C@H]1C(=O)N1CCC[C@H]1C(=O)N[C@@H](CO)C(N)=O)C(C)C
B4: Compound No. 78 (peptide)
peptide: Y[Aib]EGTFTSDYSIYLEKIAAQEFVQWLLAGGPSSGAPPPS-NH2
modifications: N-terminus assumed
SMILES: CC[C@H](C)[C@H](NC(=O)[C@H](CCCCN)NC(=O)[C@H](CCC(=O)O)NC(=O)[C@H](CC(C)C)NC(=O)[C@H](Cc1ccc(O)cc1)NC(=O)[C@@H](NC(=O)[C@H](CO)NC(=O)[C@H](Cc1ccc(O)cc1)NC(=O)[C@H](CC(=O)O)NC(=O)[C@H](CO)NC(=O)[C@@H](NC(=O)[C@H](Cc1ccccc1)NC(=O)[C@@H](NC(=O)CNC(=O)[C@H](CCC(=O)O)NC(=O)C(C)(C)NC(=O)[C@@H](N)Cc1ccc(O)cc1)[C@@H](C)O)[C@@H](C)O)[C@@H](C)CC)C(=O)N[C@@H](C)C(=O)N[C@@H](C)C(=O)N[C@@H](CCC(N)=O)C(=O)N[C@@H](CCC(=O)O)C(=O)N[C@@H](Cc1ccccc1)C(=O)N[C@H](C(=O)N[C@@H](CCC(N)=O)C(=O)N[C@@H](Cc1c[nH]c2ccccc12)C(=O)N[C@@H](CC(C)C)C(=O)N[C@@H](CC(C)C)C(=O)N[C@@H](C)C(=O)NCC(=O)NCC(=O)N1CCC[C@H]1C(=O)N[C@@H](CO)C(=O)N[C@@H](CO)C(=O)NCC(=O)N[C@@H](C)C(=O)N1CCC[C@H]1C(=O)N1CCC[C@H]1C(=O)N1CCC[C@H]1C(=O)N[C@@H](CO)C(N)=O)C(C)C
B5: Compound No. 71 (peptide)
peptide: Y[Aib]EGTFTSDYSIYLEEEAAKEFVNWLLAGGPSSGAPPPS-NH2
modifications: N-terminus assumed
SMILES: CC[C@H](C)[C@H](NC(=O)[C@H](CO)NC(=O)[C@H](Cc1ccc(O)cc1)NC(=O)[C@H](CC(=O)O)NC(=O)[C@H](CO)NC(=O)[C@@H](NC(=O)[C@H](Cc1ccccc1)NC(=O)[C@@H](NC(=O)CNC(=O)[C@H](CCC(=O)O)NC(=O)C(C)(C)NC(=O)[C@@H](N)Cc1ccc(O)cc1)[C@@H](C)O)[C@@H](C)O)C(=O)N[C@@H](Cc1ccc(O)cc1)C(=O)N[C@@H](CC(C)C)C(=O)N[C@@H](CCC(=O)O)C(=O)N[C@@H](CCC(=O)O)C(=O)N[C@@H](CCC(=O)O)C(=O)N[C@@H](C)C(=O)N[C@@H](C)C(=O)N[C@@H](CCCCN)C(=O)N[C@@H](CCC(=O)O)C(=O)N[C@@H](Cc1ccccc1)C(=O)N[C@H](C(=O)N[C@@H](CC(N)=O)C(=O)N[C@@H](Cc1c[nH]c2ccccc12)C(=O)N[C@@H](CC(C)C)C(=O)N[C@@H](CC(C)C)C(=O)N[C@@H](C)C(=O)NCC(=O)NCC(=O)N1CCC[C@H]1C(=O)N[C@@H](CO)C(=O)N[C@@H](CO)C(=O)NCC(=O)N[C@@H](C)C(=O)N1CCC[C@H]1C(=O)N1CCC[C@H]1C(=O)N1CCC[C@H]1C(=O)N[C@@H](CO)C(N)=O)C(C)C

Each binder was assayed against T1, human glucose-dependent insulinotropic … (assay: cell-based or functional assay).

Binder	Activity for human GIPR (EC50 nM), cAMP HTRF
B1	3.5 nM
B2	0.017 nM
B3	0.03 nM
B4	0.012 nM
B5	0.042 nM

What follows are binders tested against human glucagon-like peptide-1 receptor (human, UniProt P43220) (assay: cell-based or functional assay).

Binder	Activity for human GLP-1R (EC50 nM), cAMP HTRF
B1	0.017 nM
B2	0.017 nM
B3	0.017 nM
B4	0.008 nM
B5	0.017 nM

From patent US20220168396A1, “MULTI-RECEPTOR AGONIST AND MEDICAL USE THEREOF” (published 2022)
